According to article PMC3021122:

Experiments:
[1] = molecular target: T1, Shigella flexneri Spa15 (residues 1-133), N-terminal His tag, unlabelled (Shigella flexneri), P35530; assay: SEC; HiLoad 26/60 Superdex 75, 20 mM Tris-HCl (pH 7.5), 150 mM NaCl; Spa15 alone; conditions: remark: other sources report otherwise
T1 chain: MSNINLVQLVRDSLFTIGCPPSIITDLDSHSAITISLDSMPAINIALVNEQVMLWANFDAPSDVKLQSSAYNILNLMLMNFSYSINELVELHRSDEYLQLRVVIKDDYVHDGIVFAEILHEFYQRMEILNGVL

[2] = molecular target: T1, Shigella flexneri Spa15 (residues …); assay: multi-angle laser light scattering; co-purified Spa15:IpgB1 complex; data not shown; conditions: remark: other sources report otherwise

B1: Shigella flexneri Spa15 (residues 1-133), N-terminal His tag, unlabelled, P35530 1-133 (natural protein)
chain: T1 chain
For B1, the stoichiometry N [1] was 2 and the stoichiometry N [2] was 2.
